# Test results published in patent publication US20060246519A1, “MONOMERIC STREPTAVIDIN MUTEINS” (priority 2005, published 2006).
# Experiments:
# [1] = Degree of monomerization of non-boiled samples in SDS-PAGE / Western blot; assay type: physicochemical
# Experimental: FIG. 3: Western blot analysis of cell culture supernatants from B. subtilis strains producing streptavidin muteins carrying a single mutation. 15 μl of non-boiled sample of culture supernatant was loaded to each lane. Samples on the left set were collected from B. subtilis strains cultured in super-rich medium without additional supplement of biotin. Samples on the right set were collected from B. subtilis strains cultured in super-rich medium with additional supplementation of biotin (20 μM). The blot was probed with polyclonal antibodies against streptavidin and developed using 4-chloro-1-napthol (Bio-Rad) as the colour development agent. […] M, molecular weight markers; wt, wild type streptavidin.
# FIG. 4: Analysis of culture supernatants from B. subtilis strains producing streptavidin muteins carrying different combinations of mutations. All these strains were cultivated in super-rich medium supplemented with biotin (20 μM). The 15 μl of non-boiled samples of culture supernatants were loaded. FIG. 4A. Coomassie blue stained SDS-polyacrylamide gel. […]
# Streptavidin muteins carrying a single amino-acid change at the selected site may be produced in their soluble form by B. subtilis via secretion. […] Since biotin can strengthen subunit interaction, samples were analyzed in the presence or absence of biotin (Laitinen, 2001; Gonzalez, 1999). […]
# [2] = Cross-linking reactions with sulfo-EGS; assay type: physicochemical; details: 10-fold molar excess sulfo-EGS, 30 min, room temperature
# Experimental: Cross-linking of streptavidin and its muteins was carried out using sulfo-EGS [ethylene glycolbis(sulfosuccinimidyl succinate)] (Pierce) as the cross-linker. A typical reaction mixture (20 μl) contained the purified mutein (0.2 5 mg/ml) and sulfo-EGS (10-fold molar excess over the protein) in PBS. After 30 min at room temperature, the reaction was quenched with Tris-HCl (30 mM, pH 7.5). Aliquots of the cross-linking reaction samples were boiled and examined by SDS-PAGE. Lysozyme (Sigma, 0.25 mg/ml) was included in the study to help establish the optimal reaction conditions.
# [3] = tested on: Biotin-conjugated bovine serum albumin; assay: Kinetic analysis by surface plasmon resonance BIAcoreX biosensor; assay type: binding; details: interaction with biotin
# Experimental: FIG. 8: Kinetic parameters for the interaction between M4 streptavidin mutein and biotin as monitored by BIAcore biosensor. A. On-rate (ka) determination. ka is derived from association analysis. kd is the slope of the plot of In(Ro/Rt) versus (t−to) where Ro is the response at an arbitrary starting time to; Rt is the response at time t.
# The kinetic parameters (both on- and off-rates for interaction with biotin) of streptavidin muteins were determined in real time using the surface plasmon resonance based BIAcoreX biosensor. Biotin-conjugated bovine serum albumin immobilized on CM5 sensor chip was used to study the reversibility of biotin binding (Qureshi, 2001).
# proteinase K = assay: Proteinase K digestion of streptavidin and its muteins; assay type: biochemical; details: independent of the presence or absence of biotin; 5 μM proteinase K, 15 min, 30° C.
# Experimental: Purified streptavidin and its muteins (30 μM monomer) were treated with proteinase K (Invitrogen, 5 μM) for 15 min at 30° C. in 50 mM Tris-HCl containing 5 mM CaCl2, pH 8.0. The reaction was stopped by precipitation with trichloroacetic acid (Ellison, 1995). Boiled samples of precipitated proteins were resolved by reducing SDS-PAGE. The same analysis was performed with streptavidin samples treated with biotin (1 mM final concentration) prior to proteinase K digestion.
# Solubility of mutein = assay type: physicochemical; details: at a concentration of 2 mg/ml
# [4] = Dynamic light scattering (hydrodynamic radius, estimated molecular mass); assay type: physicochemical; details: for M (kDa) (Dynamic light scattering): calculated from measured RH using a protein calibration curve
# Experimental: (§1) Molecular mass of purified streptavidin and its muteins was estimated by both gel filtration and dynamic light scattering studies. Gel filtration was performed on the Bio-Rad biologic workstation equipped with a Bio-Prep SE 100/17 column that had been calibrated with molecular mass protein markers (Bio-Rad). Molecular mass was also estimated from the hydrodynamic radius of the mutein obtained using a DynaPro MS dynamic light scattering instrument (Protein Solutions, USA) that had been calibrated with lysozyme. Protein samples (2-3 mg/ml in PBS) were passed through a 0.02 μm filter (Whatman Anodisc 13) immediately prior to measurement. The size distribution profile was analyzed using the manufacturer's Dynamics V6 software.
# [5] = Apparent molecular mass by gel filtration (Bio-Prep SE 100/17); assay type: physicochemical
# Source text: FIG. 6: Gel filtration profiles of streptavidin muteins. FIG. 6A. […] Bovine gamma-globulin (158 kDa), bovine serum albumin (66 kDa), ovalbumin (44 kDa), myoglobin (17 kDa) and vitamin B-12 (1.35 kDa) were used as molecular mass markers (closed circles) to calibrate the column. The logarithm of molecular mass was plotted versus Kav (Kav=(Ve−Vo)/(Vt−Vo); Ve, elution volume; Vo, void volume; Vt, bed volume). Positions of wild-type streptavidin (wt) and streptavidin muteins are represented by solid squares. FIG. 6B. Elution profile of M4 mutein (loaded at 2 mg/ml) on the gel filtration column.
# as §1
molecule,measurement,setting,value
"M4: monomeric streptavidin quadruple mutant carrying T76R, V125R, V55T and L109T mutations (protein, Amino acid sequence for secretory production of streptavidin M4 in B. subtilis, monomeric streptavidin quadruple mutant carrying T76R, V125R, V55T and L109T mutations) MNIKKFAKQATVLTFTTALLAGGATQAFADPSKDSKAQVSAAEAGITGTWYNQLGSTFIVTAGADGALTGTYESAVGNAESRYTLTGRYDSAPATDGSGTALGWRVAWKNNYRNAHSATTWSGQYVGGAEARINTQWTLTSGTTEANAWKSTLRGHDTFTKVKPSAASIDAAKKAGVNNGNPLDAVQQ",Monomer (percentage of streptavidin in monomeric state),[1]; No additional biotin,100%
same,Monomer (percentage of streptavidin in monomeric state),[1]; With additional biotin (20 μM),100%
same,Oligomeric state after cross-linking with sulfo-EGS (SDS-PAGE),[2],migrated as monomers
same,"ka, on-rate",[3],1.80 ± 0.04 × 10^4 M^−1s^−1
same,"kd, off-rate",[3],3.39 ± 0.02 × 10^−3 s^−1
same,Susceptibility to proteinase K digestion,proteinase K,completely digested
same,solubility,Solubility of mutein,excellent solubility
same,RH (nm) (Dynamic light scattering),[4]; +biotin,2.20 ± 0.14 nm
same,M (kDa) (Dynamic light scattering),[4]; +biotin,21.5 kDa
same,RH (nm) (Dynamic light scattering),[4]; no biotin,2.08 ± 0.31 nm
same,M (kDa) (Dynamic light scattering),[4]; no biotin,18.1 kDa
same,M (kDa) (Gel filtration),[5]; +biotin,24.54 kDa
same,M (kDa) (Gel filtration),[5]; no biotin,21.87 kDa
